Experimental findings from article PMC5691136, “The role of CXCR3/LRP1 cross-talk in the invasion of primary brain tumors” (Nature Communications, 2017) are described below.

For this assay, the target named is CXCR3-A (human CXC chemokine receptor CXCR3, isoform A), stably expressed in U87 cells (human) (UniProt P49682). The assay can be described thus: plasmon waveguide resonance (PWR); membrane fragments of U87-CXCR3-A or HEK-CXCR3-A cells captured on the polylysine-treated silica sensor; ligand added incrementally in PBS, 22 °C; shifts of the resonance minimum fitted with a hyperbolic single-site function.
Sequence of CXCR3-A (human CXC chemokine receptor CXCR3, isoform A), stably expressed in U87 cells (human) (P49682 whole entry, the tested form may be a part, canonical isoform): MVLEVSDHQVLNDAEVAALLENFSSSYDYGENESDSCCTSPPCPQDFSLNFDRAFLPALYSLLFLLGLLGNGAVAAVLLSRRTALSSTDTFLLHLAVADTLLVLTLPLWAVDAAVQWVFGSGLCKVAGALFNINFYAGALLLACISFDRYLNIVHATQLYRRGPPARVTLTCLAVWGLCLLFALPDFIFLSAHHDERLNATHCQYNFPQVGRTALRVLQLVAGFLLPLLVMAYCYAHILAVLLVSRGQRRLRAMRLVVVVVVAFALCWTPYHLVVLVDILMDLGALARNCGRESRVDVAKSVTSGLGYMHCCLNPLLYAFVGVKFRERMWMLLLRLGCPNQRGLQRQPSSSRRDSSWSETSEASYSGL

Broadly, the Kd is the concentration at which binding is half-saturated. In the case of PS372424 (CXCR3 agonist) (peptide), the Kd is 36 nM.
